From paper PMC5286356

Target: bovine heart cytochrome c oxidase (bovine) (UniProt P00396)
Test: crystal structure; co-crystallised by the batch-wise method at 277 K; 15 mM sodium phosphate pH 8.0, DM and FOM, Cyt.c/CcO molar ratio 1.2, ~5% PEG 4000; ferri-Cyt.c and oxidized CcO; crystals soaked with 50 uM Cyt.c; refined at 2.0 A

- stoichiometry N: 2
Substance: bovine heart cytochrome c oxidase (from UniProt P00396 1-514; P68530 1-227; P00429 1-86) (complex)
